# Test results from US20240139329A1 (CALIFORNIA INSTITUTE OF TECHNOLOGY, published 2024).
# T1: human interleukin 3 (IL3), expressed on microarray cells (human, UniProt P08700 20-152)
# T1 construct: also called hIL3
# T1 sequence: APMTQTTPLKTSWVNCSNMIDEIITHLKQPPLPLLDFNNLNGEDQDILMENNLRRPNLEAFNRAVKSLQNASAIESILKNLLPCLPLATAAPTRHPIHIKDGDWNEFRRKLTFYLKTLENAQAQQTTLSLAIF
# T2: mouse LRP6-E1E2 (N-half, AA 20-628) tagged with Fc (mouse IgG2a) (mouse, UniProt O88572 20-628)
# T2 construct: not shown: mouse IgG2a Fc
# T2 sequence: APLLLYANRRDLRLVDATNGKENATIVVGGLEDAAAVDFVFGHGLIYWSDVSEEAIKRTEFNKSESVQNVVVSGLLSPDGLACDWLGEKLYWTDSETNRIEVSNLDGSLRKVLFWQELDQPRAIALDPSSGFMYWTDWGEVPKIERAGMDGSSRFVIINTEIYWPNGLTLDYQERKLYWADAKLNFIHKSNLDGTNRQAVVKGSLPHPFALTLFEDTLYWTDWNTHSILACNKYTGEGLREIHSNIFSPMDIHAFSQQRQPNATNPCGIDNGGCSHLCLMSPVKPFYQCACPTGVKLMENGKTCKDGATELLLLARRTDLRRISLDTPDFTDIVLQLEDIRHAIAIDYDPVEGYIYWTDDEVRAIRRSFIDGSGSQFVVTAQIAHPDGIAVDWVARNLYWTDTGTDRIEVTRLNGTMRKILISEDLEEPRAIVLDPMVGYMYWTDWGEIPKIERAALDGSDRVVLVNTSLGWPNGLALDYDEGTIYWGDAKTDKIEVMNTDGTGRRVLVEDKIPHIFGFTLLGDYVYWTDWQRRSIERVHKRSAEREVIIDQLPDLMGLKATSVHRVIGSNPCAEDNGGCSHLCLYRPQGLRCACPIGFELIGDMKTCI
# T3: mouse LRP6-E3E4 (C-half, AA 629-1244) tagged with Fc (mouse IgG2a) (mouse, UniProt O88572 629-1244)
# T3 construct: not shown: mouse IgG2a Fc
# T3 sequence: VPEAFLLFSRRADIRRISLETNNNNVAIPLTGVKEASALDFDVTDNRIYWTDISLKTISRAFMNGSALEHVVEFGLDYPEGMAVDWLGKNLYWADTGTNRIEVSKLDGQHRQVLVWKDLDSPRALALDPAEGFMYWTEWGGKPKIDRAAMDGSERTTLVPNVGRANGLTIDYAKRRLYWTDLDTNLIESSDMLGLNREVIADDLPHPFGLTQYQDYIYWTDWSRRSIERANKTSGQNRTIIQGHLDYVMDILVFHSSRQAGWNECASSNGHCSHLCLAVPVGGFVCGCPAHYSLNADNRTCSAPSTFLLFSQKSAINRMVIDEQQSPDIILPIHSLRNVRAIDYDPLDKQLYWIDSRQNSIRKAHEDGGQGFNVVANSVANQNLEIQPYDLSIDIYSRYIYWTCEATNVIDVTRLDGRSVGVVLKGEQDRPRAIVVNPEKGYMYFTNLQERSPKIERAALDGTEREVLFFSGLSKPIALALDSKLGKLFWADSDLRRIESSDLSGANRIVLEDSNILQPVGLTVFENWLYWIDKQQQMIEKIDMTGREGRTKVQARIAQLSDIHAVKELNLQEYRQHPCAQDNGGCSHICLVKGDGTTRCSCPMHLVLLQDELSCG
# T4: Human Adeno-Associated Virus Receptor (AAVR) PKD2 domain (AA 401-498) tagged with 6×His (human, UniProt Q8IZA0 401-498)
# T4 construct: range 401-498; also called human AAVR PDK2 domain
# T4 sequence: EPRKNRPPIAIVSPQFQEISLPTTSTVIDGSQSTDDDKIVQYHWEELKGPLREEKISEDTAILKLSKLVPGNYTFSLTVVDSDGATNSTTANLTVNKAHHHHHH
# B1: AAV9-X1.1 (other)
# chain: MAADGYLPDWLEDNLSEGIREWWALKPGAPQPKANQQHQDNARGLVLPGYKYLGPGNGLDKGEPVNAADAAALEHDKAYDQQLKAGDNPYLKYNHADAEFQERLKEDTSFGGNLGRAVFQAKKRLLEPLGLVEEAAKTAPGKKRPVEQSPQEPDSSAGIGKSGAQPAKKRLNFGQTGDTESVPDPQPIGEPPAAPSGVGSLTMASGGGAPVADNNEGADGVGSSSGNWHCDSQWLGDRVITTSTRTWALPTYNNHLYKQISNSTSGGSSNDNAYFGYSTPWGYFDFNRFHCHFSPRDWQRLINNNWGFRPKRLNFKLFNIQVKEVTDNNGVKTIANNLTSTVQVFTDSDYQLPYVLGSAHEGCLPPFPADVFMIPQYGYLTLNDGSQAVGRSSFYCLEYFPSQMLRTGNNFQFSYEFENVPFHSSYAHSQSLDRLMNPLIDQYLYYLSRTIDGAATKNQTLKFSVAGPSNMAVQGRNYIPGPSYRQQRVSTTVTQNNNSEFAWPGASSWALNGRNSLMNPGPAMASHKEGEDRFFPLSGSLIFGKQGTGRDNVDADKVMITNEEEIKTTNPVATESYGQVATNHQSAQGNNTRSVAQAQTGWVQNQGILPGMVWQDRDVYLQGPIWAKIPHTDGNFHPSPLMGGFGMKHPPPQILIKNTPVPADPPTAFNKDKLNSFITQYSTGQVSVEIEWELQKENSKRWNPEIQYTSNYYKSNNVEFAVNTEGVYSEPRPIGTRYLTRNL
# notes: also called AAV-X1.1; X1B10
# B2: AAV.CAP-Mac (other)
# chain: MAADGYLPDWLEDNLSEGIREWWALKPGAPQPKANQQHQDNARGLVLPGYKYLGPGNGLDKGEPVNAADAAALEHDKAYDQQLKAGDNPYLKYNHADAEFQERLKEDTSFGGNLGRAVFQAKKRLLEPLGLVEEAAKTAPGKKRPVEQSPQEPDSSAGIGKSGAQPAKKRLNFGQTGDTESVPDPQPIGEPPAAPSGVGSLTMASGGGAPVADNNEGADGVGSSSGNWHCDSQWLGDRVITTSTRTWALPTYNNHLYKQISNSTSGGSSNDNAYFGYSTPWGYFDFNRFHCHFSPRDWQRLINNNWGFRPKRLNFKLFNIQVKEVTDNNGVKTIANNLTSTVQVFTDSDYQLPYVLGSAHEGCLPPFPADVFMIPQYGYLTLNDGSQAVGRSSFYCLEYFPSQMLRTGNNFQFSYEFENVPFHSSYAHSQSLDRLMNPLIDQYLYYLSRTINGSGQNQQTLKFSVAGPSNMAVQGRNYIPGPSYRQQRVSTTVTQNNNSEFAWPGASSWALNGRNSLMNPGPAMASHKEGEDRFFPLSGSLIFGKQGTGRDNVDADKVMITNEEEIKTTNPVATESYGQVATNHQSAQLNTTKPIAQAQTGWVQNQGILPGMVWQDRDVYLQGPIWAKIPHTDGNFHPSPLMGGFGMKHPPPQILIKNTPVPADPPTAFNKDKLNSFITQYSTGQVSVEIEWELQKENSKRWNPEIQYTSNYYKSNNVEFAVNTEGVYSEPRPIGTRYLTRNL
# notes: also called CAP-C1
# Legend:
# [1] = target: T5, human low-density lipoprotein receptor-related protein 6 (LRP6), on cells (human, UniProt O75581 20-1613); assay: cell microarray screen hit (membrane)
# T5 construct: also called hLRP6
# Experimental: After these controls, the six-capsid pool was tested in a full screen of approximately 6400 proteins, including 6000 human plasma membrane proteins and secreted and cell surface-tethered proteins, as well as approximately 400 heterodimers. […] To assign these hits to specific capsids, follow-up deconvolution screens were performed with each individual capsid from the pool (FIG. 12E). DNA oligos for the 22 identified hits, as well as the positive control CD86, were affixed in duplicate locations to new slides. A negative control condition with no AAV analyte and a positive control condition with CTLA4-Fc (CD86 binder) were also included.
# [2] = target: T1, human interleukin 3 (IL3), expressed on …; assay: cell microarray screen hit (title of Table 4)
# [3] = target: T2, mouse LRP6-E1E2 (N-half, AA 20-628) …; assay: SPR, target-Fc captured on protein A chip, AAV analyte (FIG. 14D)
# [4] = target: T3, mouse LRP6-E3E4 (C-half, AA 629-1244) …; assay: as above
# [5] = target: T6, human GP2 (AA 1-518) triple tagged with Fc-Myc-6×His (human, UniProt P55259 29-518); assay: validated interaction (cell culture potency assay and/or SPR)
# T6 construct: also called human GP2-Fc; not shown: Fc and Myc tags
# [6] = target: T4, Human Adeno-Associated Virus Receptor …; assay: pull-down, His-tagged bait on Ni-NTA, AAV prey, Western blot (FIG. 21)
# [7] = target: T5, human low-density lipoprotein …; assay: cell microarray screen
# T6 sequence (P55259 29-518): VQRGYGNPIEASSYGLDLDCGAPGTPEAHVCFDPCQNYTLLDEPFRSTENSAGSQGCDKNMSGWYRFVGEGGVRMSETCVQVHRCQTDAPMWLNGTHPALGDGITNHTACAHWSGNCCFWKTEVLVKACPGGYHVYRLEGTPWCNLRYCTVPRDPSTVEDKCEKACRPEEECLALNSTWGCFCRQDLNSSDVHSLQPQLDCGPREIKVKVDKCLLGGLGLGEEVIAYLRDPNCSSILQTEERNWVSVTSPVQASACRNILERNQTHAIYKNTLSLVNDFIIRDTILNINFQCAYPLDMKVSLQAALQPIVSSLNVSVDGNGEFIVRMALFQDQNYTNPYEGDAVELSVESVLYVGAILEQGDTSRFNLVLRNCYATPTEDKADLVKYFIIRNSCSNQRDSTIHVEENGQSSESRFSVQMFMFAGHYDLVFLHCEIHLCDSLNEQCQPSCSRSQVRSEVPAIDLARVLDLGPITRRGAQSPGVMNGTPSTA
Binder,binding result [1],binding result [2],binding result [3],binding result [4],binding result [5],binding result [6],binding result [7]
B1,binds,binds,binds,no binding,binds,binds,–
B2,–,binds,binds,no binding,–,binds,binds
